In publication PMC4586593 one finds Kd data, which are given here for 1 substance.

By Kd is commonly meant the concentration at which binding is half-saturated. A lower Kd goes with higher affinity.

Experiment [1] concerns the target unphosphorylated smooth muscle myosin (SMM) filaments stabilized against ATP-induced disassembly (UniProt P10587).
For experiment [2] the target is unchanged. The source holds these as a separate data set.

Like-named read-outs stand apart in the source and are kept apart here.

As to “smooth muscle MLCK, short isoform, from chicken gizzard, unlabeled (enzyme)”, the Kd was found to be 1.5 µM in experiment [1] and 1.3 µM in experiment [2].
